B1: Pistol ribozyme (parent)
chain: GGGUCGUUGUUCCAUAAUCGCGUGGAUAUGGCACGCAAGUUUCUACCGGGCACCGUAAAUGUCCGACUGGAGCCGUUCGGGCGGCUAUAAACAGACCUCAGGCCCGAAGCGUGGCGGCACCUGCCGCCGGUGGUAAAAAAGAUCGGAAGAGCACACGUCU

This data set covers variants of B1. Put plainly: aptazyme ON/OFF ratio, guanine; higher = stronger switching; co-transcriptional cleavage with and without guanine.
For the variant U7C U8C U10G U11G C13A, the “aptazyme ON/OFF ratio” value was 1.24. In the case of U7C U8C U10G U11G C13U it was 1.16; in that of U7C U8C U10G U11G C13G, 1.11; in that of U7C U8G G9A U10C U11A C12G C13A, 1.07. Under U7C U8G G9A U10C U11A C12G C13U stands 1.11; under U7C U8G G9A U10C U11A C12G C13G, 1.09.

Consider U7C U8G G9A U10G U11C C12A C13G, for which the “aptazyme ON/OFF ratio” value was 1.1. For the variant U7C U8G G9A U10G U11C C12A C13A, the “aptazyme ON/OFF ratio” value was 1.35. In the case of U7C U8G G9A U10G U11C C12A C13U it was 1.25. Under U7C U8G G9A U10C U11C C12G C13G stands 1.14; under U7C U8G G9A U10C U11C C12G C13U, 1.07; under U7C U8G G9A U10C U11C C12G C13A, 1.13. As to U7C U8C U11G C13A, the “aptazyme ON/OFF ratio” value worked out at 1.24.

Take U7C U8C U11G C13U: the “aptazyme ON/OFF ratio” value worked out at 1.3.

As to U7C U8C U11G C13G, the “aptazyme ON/OFF ratio” value is 1.28. For the variant U7C U8G G9A U10A U11A C12U C13U, the “aptazyme ON/OFF ratio” value stood at 1.16. Turning to U7C U8G G9A U10A U11A C12U C13G, the “aptazyme ON/OFF ratio” value was 1.17. In the case of U7C U8G G9A U10A U11A C12U C13A it was 1.17; in that of U7C U8G C12A C13A, 1.22. U7C U8G C12A C13G: the “aptazyme ON/OFF ratio” value was determined as 1.08. In the case of U7C U8G C12A C13U, the “aptazyme ON/OFF ratio” value turned out to be 1.27. U7C U8C U11G C12G C13A: the “aptazyme ON/OFF ratio” value stood at 1.1.

Consider U7C U8C U11G C12G C13U, for which the “aptazyme ON/OFF ratio” value stood at 1.09.

In the case of U7C U8C U11G C12G C13G, the “aptazyme ON/OFF ratio” value is 1.16. Regarding U7C U8C U11A C12U C13G, the “aptazyme ON/OFF ratio” value came out at 1.13. Under U7C U8C U11A C12U C13U stands 1.37; under U7C U8C U11A C12U C13A, 1.16; under U7C U8G G9A U10C U11C C12U, 1.01. In the case of U7C U8G G9A U10C U11C C12A, the “aptazyme ON/OFF ratio” value worked out at 1.05. Under U7C U8G G9A U10C U11C C12G stands 1.03.

Take U7C U8G C12U C13G: the “aptazyme ON/OFF ratio” value came to 1.18. In the case of U7C U8G C12U C13U it was 1.3; in that of U7C U8G C12U C13A, 1.22; in that of U7C U8G G9A U10A U11G C12A C13U, 1.16. Take U7C U8G G9A U10A U11G C12A C13G: the “aptazyme ON/OFF ratio” value was 1.19. As to U7C U8G G9A U10A U11G C12A C13A, the “aptazyme ON/OFF ratio” value came to 1.13. With U7C U8G G9A U10C U11G C12G C13A, the “aptazyme ON/OFF ratio” value was 1.23. Consider U7C U8G G9A U10C U11G C12G C13U, for which the “aptazyme ON/OFF ratio” value turned out to be 1.09. Take U7C U8G G9A U10C U11G C12G C13G: the “aptazyme ON/OFF ratio” value turned out to be 1.27. Take U7C U8G C13G: the “aptazyme ON/OFF ratio” value stood at 1.16.

Regarding U7C U8G C13A, the “aptazyme ON/OFF ratio” value was 1.25. Consider U7C U8G C13U, for which the “aptazyme ON/OFF ratio” value worked out at 2.24. Under U7C U8C U10G U11C C12G C13U stands 1.17.

Take U7C U8C U10G U11C C12G C13G: the “aptazyme ON/OFF ratio” value was 1.13. In the case of U7C U8C U10G U11C C12G C13A it was 1.17. With U7C U8C U10G U11G C12G C13U, the “aptazyme ON/OFF ratio” value was 1.14. U7C U8C U10G U11G C12G C13G: the “aptazyme ON/OFF ratio” value came out at 1.11.

Take U7C U8C U10G U11G C12G C13A: the “aptazyme ON/OFF ratio” value was found to be 1.13. Regarding U7C U8G G9A C13U, the “aptazyme ON/OFF ratio” value worked out at 1.11. On to U7C U8G G9A C13A, for which the “aptazyme ON/OFF ratio” value came to 1.14.

For U7C U8G G9A C13G, the “aptazyme ON/OFF ratio” value was 1.05. On to U7C U8G C12U, for which the “aptazyme ON/OFF ratio” value amounted to 2.44. In the case of U7C U8G C12A it was 1.63. Regarding U7C U8G C12G, the “aptazyme ON/OFF ratio” value turned out to be 1.29. In the case of U7C U8G G9A U10A U11C C12A C13A it was 1.15; in that of U7C U8G G9A U10A U11C C12A C13G, 1.15; in that of U7C U8G G9A U10A U11C C12A C13U, 1.17. As to U7C U8G G9A U10A C12A C13G, the “aptazyme ON/OFF ratio” value is 1.1. In the case of U7C U8G G9A U10A C12A C13A, the “aptazyme ON/OFF ratio” value amounted to 1.17. Turning to U7C U8G G9A U10A C12A C13U, the “aptazyme ON/OFF ratio” value is 1.19. In the case of U7C U8C U10G U11G C12G it was 1.2; in that of U7C U8C U10G U11G C12A, 1.26. Under U7C U8C U10G U11G C12U stands 1.22. For the variant U7C U8G G9A U10G U11C C12U C13A, the “aptazyme ON/OFF ratio” value is 1.34. Under U7C U8G G9A U10G U11C C12U C13U stands 1.29; under U7C U8G G9A U10G U11C C12U C13G, 1.25; under U7C U8G G9A U10C U11A C12A C13G, 1.08.

For the variant U7C U8G G9A U10C U11A C12A C13A, the “aptazyme ON/OFF ratio” value was 1.11.

With U7C U8G G9A U10C U11A C12A C13U, the “aptazyme ON/OFF ratio” value was 1.07.

For U7C U8G G9A U10G U11C C12G C13U, the “aptazyme ON/OFF ratio” value is 1.19. Under U7C U8G G9A U10G U11C C12G C13G stands 1.41; under U7C U8G G9A U10G U11C C12G C13A, 1.2; under U7C U8G G9A U10G C12G, 1.34. Consider U7C U8G G9A U10G C12A, for which the “aptazyme ON/OFF ratio” value came to 1.37. On to U7C U8G G9A U10G C12U, for which the “aptazyme ON/OFF ratio” value is 1.37. For U7C U8C U11C C12U, the “aptazyme ON/OFF ratio” value was determined as 1.34. For U7C U8C U11C C12A, the “aptazyme ON/OFF ratio” value turned out to be 1.33. On to U7C U8C U11C C12G, for which the “aptazyme ON/OFF ratio” value was found to be 1.16. In the case of U7C U8C U10C U11G C12A C13U it was 1.52; in that of U7C U8C U10C U11G C12A C13G, 1.27; in that of U7C U8C U10C U11G C12A C13A, 1.32. For the variant U7C U8C U10G C12U, the “aptazyme ON/OFF ratio” value stood at 1.11. Turning to U7C U8C U10G C12G, the “aptazyme ON/OFF ratio” value was found to be 1.12.

Source of the values: the RNAGym collection of RNA variant scans (doi:10.1021/acssynbio.7b00057).
